# Reference: the DeepSol protein solubility set
# Assay: soluble on expression in E. coli; label from the status in PepcDB or PDB records
row,Sequence,soluble on expression in E. coli
1,MSLQPSKRYEIGISQTIGKNDRMQDTANVLGELFPNIDIIGIFDGHNGEEAARYCLISMKNEFNCLNPKDCEHQLPQIFESIHNNISSQTISGTTASICIIRSDDVVLAHVGDSPIYFYENGGKVINIKGVDRVNGQINLSRSLGDKLLQPPLTYKPDISIHSLSMKYIVIVTDGVTDSLSDSEMEIILSQPLSPDQIAATIRNNAFINGSVDNISVIVIQIIEGHHHHHH,soluble
2,MSLGFVPVRGLHHFAYRCRDAEETRQFYEGILGLPLVHVVRAEEVPSTGEYCPYMHLFFEMKDGSCVAFFDLDDDTVPLPSSNTPVWAQHLALRVDSVAAVEEAKRKLEQAGVKVLGPVDHDGFVCSIYFFDPNGVRLELTTDTADSTEMARYRREARPGCDAWTLEKSLRRATGQGSVLREGHHHHHH,not soluble
3,MGSDKIHHHHHHMSKLNMKEWINEIIQKKEVVAMPIMTHPGIEMIGKTVRDAVTDGQVHYNAIKALSEKYPTAAATVIMDLTVEAEAFGAEIVFPENEVPSVVGRLLNDEEAIDKLEIPALNKGRIPQYLKANMLAAKTITDRPVFAGCIGPYSLAGRLYDMSEIMMLIYINPEAANSLLKKCSDFILRYCMALKATGVNGVVMAEPAAGLLSDEDCTQYSSVFIKEIVEKVQDDHFTVILHNCGNTGHCTKAMVATGAAAYHFGNKIDMVEALKEVPADALAMGNLDPVSLFKAATPEVMKKATLDLLEATRSYPNFVLSSGCDTPPHTPSENIDAFFAALNEFNNA,not soluble
4,MSLAEPKWLQDLKEEDYIKEDFDATGKSRYTVEGIDKNDPDWLNKAAKKVHAAEGDDYVKLDAGLLTVNQINWMLRRAFGELTYVDDNNQFLWYNRPTDPNKKMLAKRTPDQVGDTMGAVHPDIRNVIPEAKKVIYALRNKIDGHDEVKMPVPNGNRHKLILHDYKRIEDDEGNYVGTYEWVQDIYPFVKYFCETTGQKLVDDPDATTGATYKRDEVDTGTGASKHEEHVEKKQEETDTSSGASEYEGHHHHHH,soluble
5,MGSDKIHHHHHHMKILYIITGLPTGGAEMMLYKLLSQINQERFEPIVVSLMDRGTLGDRIEALGIPVHTIGMNRGGIPMPVDVWRLVHLVDRLQPDIIQGWMYHGNLAAQFASFLNGNKIPIVWSIHYSIDSLESDKKMTVAIIKFSAYISRLPKQVLFVSQNSKLQHEALGYSSKNSCIIPNGFDTISFSPSLTERVDVRSELSLPHESLLIGLICRYHPMKDHANFIQAAALFLKEHPNINFLMIGQGVDRDNPTLNKLIKELGIGDRISLLGERKDIPRLITSLDIFTSASAYGEAFPLVIGEAMSCGIPCVVTDVGDSGWIVGNTGKVIPPRNPQMLADAWKELIALGEEGRNILGKAARARITEDFALNSVVAKYELVYEKILSNMST,not soluble
6,MPEKKSLLEVPPELVFSGPFDHVITTYMTLTNISQSPVCFLVKTTVPNSYCVRPNRGILNIGDSKQIEVMLQPLEKVPPDAKQHKFLVQSCVAPSIDVSDLESVWKNVKPDELTYNRLVVTFVDNTDSKSNIECEICTLEFSSVVDNQIPRILQCGHSICQSCASKLAKNCVILCPFCRNETNVSSVASLPKNFALLQAIDQKTLRVPPLEIAKLRQQLSCQLSKLEEQVSKTDKSIKAVGRAQLSNLKDGREFQERKDSIVSYYASIRETINALENEAIGKLHTIADMNVSKNALLVAELSEILKHQNLKIAELKLSMEMDDVELATRSLTDSGTECAVVKPAVLDVALTFPEIDKMALLSMTTKFPSNFSTV,not soluble
7,MITRIPRSSFSANINNTAQTNEHQTLSELFYKELEDKFSGKELATPLLKSFSENCRQNGRHIFSNKDFVIKFSTSVLQADKKEITIINKNENTTLTQTIAPIFEKYLMEILPQRSDTLDKQELNLKSDRKEKEFPRIKLNGQCYFPGRPQNRIVCRHIAAQYINDIYQNVDYKPHQDDYSSAEKFLTHFNKKCKNQTLALVSSRPEGRCVAACGDFGLVMKAYFDKMESNGISVMAAILLVDNHALTVRLRIKNTTEGCTHYVVSVYDPNVTNDKIRIMSESKENIKHYSLMDFMNVDYSLLKWSNDHVINQSVAIIPALPKEQLLMLKGSVDEITPPLSPATMNLLMAIGQNHQLTQLMIQLQKMPELHRTEMLTAYNSINLPGLYLAINYGNADIVETIFNSLSETGYEGLLSKKNLMHILEAKDKNGFSGLFLAISRKDKNVVTSILNALPKLAATHHLDNEQVYKFLSAKNRTSSHVLYHVMANGDADMLKIVLNALPLLIRTCHLTKEQVLDLLKAKDFYGCPGLYLAMQNGHSDIVKVILEALPSLAQEINISASDIVDLLTAKSLARDTGLFMAMQRGHMNVINTIFNALPTLFNTFKFDKKNMKPLLLANNSNEYPGLFSAIQHKQQNVVETVYLALSDHARLFGFTAEDIMDFWQHKAPQKYSAFELAFEFGHRVIAELILNTLNKMAESFGFTDNPRYIAEKNYMEALLKKASPHTVRAAALEHHHHHH,not soluble
8,SSLENVVYNLVNAGHFDGRAGELPCAVIGEKVIAKIQNEDVVVFKNNTPFPTNVAVELFAKRSIRPHPELKLFRNLNIDVCWSHVLWDYAKDSVFCSSTYKVCKYTDLQCIESLNVLFDGRDNGALEAFKKCRNGVYINTTKIKSLSMIKGPQRADLNGVVVEKVGDSDVEFWFAVRKDGDDVIFSRTGSLEPSHYRSPQGNPGGNRVGDLSGNEALARGTIFTQSRLLSSFTPRSEMEKDFMDLDDDVFIAKYSLQDYAFEHVVYGSFNQKIIGGLHLLIGLARRQQKSNLVIQEFVTYDSSIHSYLITDENSGSSKSVCTVIDLLLDDFVDIVKSLNLKCVSKVVNVNVDFKDFQFMLWCNEEKVMTF,soluble
9,MGSDKIHHHHHHMGINKFNHEGYHDPTPHEALTNIMKKEKAEKKSAFKPLVYICSPYSGDVEGNIKKARSFCRFALDQNCIPIAPHLMFPQFMDDENPEERELAIFMDIVLMGKCSEVWVLGNTISTGMAREIEVAKKRRQTVRYFSPEHEEVESL,not soluble
10,MSDKDEGTERLVALLERLGVNRWAARSEADDAVVNARNLVPMFLLLREVWKHVVREGDTSWLQKDARLLAQEPEAGWSDMRRALASLQAKGATAQELTDVVKGKQVSLLYDVFETLCDDDPDLEAEFSGIGWGVFETDAVGRPGRRMDRLFAPVVTLDPTGRCMGPRE,not soluble
11,MGDNENGDNLNNHQDSGSGSHHDAAPQQQQNNMSHQQQPQQQQHNEHNKQQQQQRDDVCRDFLKNICNRGSRCKFYHPSEAPPISDHDYNFCIDYQNRGCQRDNCRFVHAPRDEVERYKTTRELTLILARAIAAVGHGDTIGGIPICKEFQTGRCARGVNRCRYWHVNVDLERDRRNRGLPPSNDFGPGGGGGGMGGGGGSGGSGGGSGRFPPPPPPYGGGGRRRPYDDYDSDPIKRGRYGSDDRLMELEKRNAELSKEVDSLRRELQREHDRYEDLYALFRQQSGGAPAPPKAAAAASAVNDYYGTWGQKAPGW,soluble
12,MKDFVKGRKIYTRTYNKCDPSLVVVERAKRRLGETKYNPFYNNCEHFARYCKVGIPISDQVENYKSLVGNSGIDASDALLNNGKSIVDTTQNLMKTTLDKISNFWKNDNDDDDGFFEYYLEHHHHHH,not soluble
13,MGLISKNRGPCQVCHNTETTRRHFGIISCTACAAFFRRSIGMQYLCTAENRCTISFDRKFFCRACRYASCLKAGMKLELIRKQKNNIYLRFPDAASNQQNLVRDSMSPATSEGGQSSSSKTDEESDDPEYSKILKMYHDDLLQYYVKEVKKMMAEKRRGCEKNTLQIKTISDLMLITARQSGPSMEECLRCPGVDMLEKEDVEALLRYYRFSNIWVDSVLIDSVLESAKGDSHTDTDDRLSRFIQEVKSTLGSSLAHLNLNIYEFAAFKALCIWKLRFYETSFAQKIIAHEHYEGVTGALRNYYENCTELADMEIAIRIGDITLQIVTVQNTYHEMVRLYYQIGMPL,not soluble
14,MSLADQAIHWLFPTPVLQADLTPTADVALAMDQQLALFDREVFSHPEFSNRNNLTGDLLGKAGLDQLHRLEAFQWLNQQLAVHVDAFLRELLGPNHALEVHIQKAWPVVCARQGGTIEPHTHRNAQLSAVFYVRTEPDNPSGELEFQAADDYFSHVMAIPYRDAAVSGGVFAPQQHRLLLFPSDLRHQVTPYEGASPRYSVSYDLAITTAPGHGREMRMPHPMDWVPLCKPGPAEGHHHHHH,soluble
15,MDIFPGRLYLKKEVETVEGLQEILAISANRCFRCGNTNPFLFGKMTCASCDREDCLYCRNCIVMGRVNSCQKLYYQKADILPERIESCLGWEGTLSPGQKKAASAVVSSIKQKVDMLLWAVAGSGKTEMMFEGMDLALKQGFRICIASPRVDVCLELYPRLQAVFKEIDIVCLYGDSKDKYQGEQFVVATTHQLIRFYDTFQVIFIDEVDAFPYAKDPFLEYAVRKARTKVGSTIIITATPEKKWQQECATGKRNFVKIPARYHRKQLPVPRTCWIGPWKKNLAQGKITLKLINWIKKAELKNQPVLIFFPEIEAMNQFAEALVNYDFTRPVTVHSADQLRKEKVEWLREGKIKLLLTTTILERGVTFKDVQVAVFGSEGRIFTEAALVQIAGRAGRKLTHPTGDVCFFHYGKTTEMNRAITHIKKMNQLGFKEGLLDD,not soluble
16,GPLGSPEFISLTSIPSLREQQHPLIRQLADCIEEVWHQHLDLSPYHLPAELGYVEGRLEGEKLTIENRCYQTPQFRKMHLELAKVGNMLDILHCVMFPRPEYDLPMFGCDLVGGRGQISAAIADLSPVHLDRTLPESYNSALTSLNTLNFSQPRELPEWGNIFSDFCIFVRPSSPEEEAMFLGRVREFLQVHCQGAIAASPVSAEQKQQILAGQHNYCSKQQQNDKTRRVLEKAFGVDWAENYMTTVLFDLPE,soluble
17,MIERRKIAVIGSGQIGGNIAYIVGKDNLADVVLFDIAEGIPQGKALDITHSMVMFGSTSKVIGTNDYADISGSDVVIITASIPGRPKDDRSELLFGNARILDSVAEGVKKYCPNAFVICITNPLDVMVSHFQKVSGLPHNKVCGMAGVLDSSRFRTFIAQHFGVNASDVSANVIGGHGDGMVPATSSVSVGGVPLSSFIKQGLITQEQIDEIVCHTRIAWKEVADNLKTGTAYFAPAAAAVKMAEAYLKDKKAVVPCSAFCSNHYGVKGIYMGVPTIIGKNGVEDILELDLTPLEQKLLGESINEVNTISKVLDNAPAAGA,soluble
18,MGSGKPPLILASGSPRRKALLEALGYPIRVAVPGVEEEGLPLPPKALAQALARRKGEAVQGEWVLAADTVVDLDGEVLGKPKDPEENRLFLRRLSGRLHLVHTAFYLRTPKEVVEEVHTARVFFRPLSEEEIAWYVGSGEGLDKAGGYGAQGLGMALLERVEGDFYTVVGLPVSRVFALLWARGFRP,soluble
19,GPGSMFSLVRGLYSSIFADDTRKVLIVGLESSGKTTLSEQLKHMYATESSKNGANSSTTEENSGDATASEVNYNFPTPAPVESLRKKIRPTTGLNRSSVTHVTTPPQHETPNVSLTPLTTPLILWDIGGSLRPLWGNFFGTCHGVIFVVDSTLGEATSNGCSEGGRKTSPDQVGTSEDDESDVGAQPNSPIGDVREGERSQFLRKLYAKDALILRQMFSHPLLAGAPLLIVSNKVDAANHHTLVEIQDALRLVDVALMDEFYADDCVVGEPVYGELHRNGEGDYEGPPDRSAYDKLSNEKSFGGVATPPPGSSGIGNRVMRLVEMSALHGTGVVDGMNWLVAQMRDSGRQPLPDDGK,not soluble
20,MNDELFNLIERLANLLRQETRLEGQSLGLQPIQQEALYYLSTCNRYSDTTLAVTEFLGLTKGTVSQSLKILESKSLIAKVKDKKDKRITHLKVTETGREFLMKTCPPQKFTDAIAGLSVDEEFETKTLLKKVLSNYQLATGRTAFGVCKHCKFNRKTSDGILCDLTKEALSSDDIMLICREYVV,not soluble
